In patent US20090104178A1 (published 2009):

B1: hCCL28 (ligand)
chemokine: SEAILPIASSCCTEVSHHISRRLLERVNMCRIQRADGDCDLAAVILHVKRRRICVSPHNHTVKQWMKVQAAKKNGKGNVCHRKKHHGKRNSNRAHQGKHETYGHKTPY
B2: hCXCL13 (ligand)
chemokine: VLEVYYTSLRCRCVQESSVFIPRRFIDRIQILPRGNGCPRKEIIVWKKNKSIVCVDPQAEWIQRMMEVLRKRSSSTLPVPVFKRKIP
B3: mCCL27 (ligand)
chain: LPLPSSTSCCTQLYRQPLPSRLLRRIVHMELQEADGDCHLQAVVLHLARRSVCVHPQNRSLARWLERQGKRLQGTVPSLNLVLQKKMYSHPQQQN
B4: mCXCL14 (ligand)
chain: SKCKCSRKGPKIRYSDVKKLEMKPKYPHCEEKMVIVTTKSMSRYRGQEHCLHPKLQSTKRFIKWYNAWNEKRRVYEE
B5: hCXCL14 (ligand)
chemokine: SKCKCSRKGPKIRYSDVKKLEMKPKYPHCEEKMVIITTKSVSRYRGQEHCLHPKLQSTKRFIKWYNAWNEKRRVYEE
B6: mCCL25 (ligand)
chain: QGAFEDCCLGYQHRIKWNVLRHARNYHQQEVSGSCNLRAVRFYFRQKVVCGNPEDMNVKRAMRILTARKRLVHWKSASDSQTERKKSNHMKSKVENPNSTSVRSATLGHPRMVMMPRKTNN

The binders below were run against Purified recombinant EV CrmD protein (ectromelia virus).

Question: B1 was tested. Which Kd did it give?
Answer: 2.8 nM

Question: B2 was tested. Which Kd did it give?
Answer: 7.4 nM

Question: B3 was tested. Which Kd did it give?
Answer: 8.5 nM

Question: B4 was tested. Which Kd did it give?
Answer: 3.2 nM

Question: How did the Kd turn out when B5 was run?
Answer: 7.1 nM

Question: With B6 as the binder, how does the Kd read?
Answer: 3.2 nM
